The source of these data is article PMC8068247, “Innovative and Highly Sensitive Detection of Clostridium perfringens Enterotoxin Based on Receptor Interaction and Monoclonal Antibodies” (Toxins, 2021).

Test [1] concerns the target Clostridium perfringens enterotoxin (CPE) (Clostridium perfringens) (UniProt P01558). The following applies: cited from earlier work.
Test [2] shares this target. The following applies: cited from earlier work. The source holds these as a separate data set.
The target in test [3] is T1, recombinant Clostridium perfringens enterotoxin (CPE) (aa 26–319, wild type) (Clostridium perfringens, UniProt P01558 26-319).
T1 construct: also called CPE 26–319; holo-CPE
T1 sequence: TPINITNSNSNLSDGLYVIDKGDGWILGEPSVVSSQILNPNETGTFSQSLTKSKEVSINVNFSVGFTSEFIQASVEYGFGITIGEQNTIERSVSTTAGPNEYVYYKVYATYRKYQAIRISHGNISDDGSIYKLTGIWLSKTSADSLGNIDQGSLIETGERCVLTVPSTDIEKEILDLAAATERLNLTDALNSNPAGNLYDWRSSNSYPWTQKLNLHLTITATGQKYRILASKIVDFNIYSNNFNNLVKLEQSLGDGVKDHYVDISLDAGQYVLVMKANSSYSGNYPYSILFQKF
Briefly: SPR; […], multi-cycle, 120 s association, 1200 s dissociation; HBS-EP+ pH 7.4, 25 °C; Biacore T200; 1:1 Langmuir fit. The following applies: both partners purified.

Like-named read-outs stand apart in the source and are kept apart here.

What is called Kd is the free concentration of one partner at which half of the binding sites on the other are occupied at equilibrium, for simple one-to-one binding. In the case of claudin-4 (from UniProt O14493), the Kd in test [1] was 3.4 nM. Consider claudin-4 (from UniProt O35054), for which the Kd in test [2] is 9 nM.

B1: GST human claudin-4 fusion protein (GST-ShCLDN4H8) (receptor)
chain: MASMGLQVMGIALAVLGWLAVMLCCALPMWRVTAFIGSNIVTSQTIWEGLWMNCVVQSTGQMQCKVYDSLLALPQDLQAARALVIISIIVAALGVLLSVVGGKCTNCLEDESAKAKTMIVAGVVFLLAGLMVIVPVSWTAHNIIQDFYNPLVASGQKREMGASLYVGWAASGLLLLGGGLLCCNCPPRTDKPYSAKYSAARSAAASNYV
By koff is commonly meant the first-order rate constant of dissociation. The term kon denotes the second-order rate constant of association. As to B1, in test [3], the Kd amounted to 0.38 nM, the koff was found to be 0.00021 s⁻¹ and the kon worked out at 560000 M⁻¹ s⁻¹.
